Test results as given in patent publication US20150266954A1.

Key:
human IL-21 (human) [1] = molecular target: human IL-21 (human) (UniProt Q9HBE4); assay: cell-based or functional assay
human IL-21 (human) [2] = molecular target: human IL-21 (human) (UniProt Q9HBE4); assay: capture ELISA, biotin-IL-21 at 11 nM
human IL-21 (human) [3] = molecular target: human IL-21 (human) (UniProt Q9HBE4); assay: capture ELISA, biotin-IL-21 at 33 nM
human IL-21 (human) [4] = molecular target: human IL-21 (human) (UniProt Q9HBE4); assay: capture ELISA, biotin-IL-21 at 1.2 nM
human IL-21 (human) [5] = molecular target: human IL-21 (human) (UniProt Q9HBE4); assay: capture ELISA, biotin-IL-21 at 3.7 nM
human IL-21 (human) [6] = molecular target: human IL-21 (human) (UniProt Q9HBE4); assay: capture ELISA, biotin-IL-21 at 0.05 nM
human IL-21 (human) [7] = molecular target: human IL-21 (human) (UniProt Q9HBE4); assay: capture ELISA, biotin-IL-21 at 0.14 nM
human IL-21 (human) [8] = molecular target: human IL-21 (human) (UniProt Q9HBE4); assay: capture ELISA, biotin-IL-21 at 0.41 nM
[9] = molecular target: cynomolgus monkey IL-21 (cynomolgus monkey); assay: cell-based or functional assay
mouse IL-21 (mouse) = mouse IL-21 (mouse) (UniProt Q9ES17); assay: cell-based or functional assay
rabbit IL-21 (rabbit) = assay: cell-based or functional assay
Chain of rabbit IL-21 (rabbit) (chain, as listed by the source limits assumed): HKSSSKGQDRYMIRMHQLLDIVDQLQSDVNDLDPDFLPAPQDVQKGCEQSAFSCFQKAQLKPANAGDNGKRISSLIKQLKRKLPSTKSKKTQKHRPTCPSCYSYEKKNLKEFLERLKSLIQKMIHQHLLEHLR

Chain of human IL-21 (human) (Q9HBE4 32-162): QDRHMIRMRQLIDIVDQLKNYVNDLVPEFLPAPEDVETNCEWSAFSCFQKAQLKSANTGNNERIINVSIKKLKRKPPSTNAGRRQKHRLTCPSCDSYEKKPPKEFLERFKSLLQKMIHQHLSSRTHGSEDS
Chain of cynomolgus monkey IL-21 (cynomolgus monkey) (Q9HBE4 other isoform, or with tags, fused parts or gaps): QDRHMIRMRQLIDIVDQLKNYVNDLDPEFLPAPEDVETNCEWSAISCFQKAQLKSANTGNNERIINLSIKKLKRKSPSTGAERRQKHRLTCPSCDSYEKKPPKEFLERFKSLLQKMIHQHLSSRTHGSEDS

Substance: human IgG4 isotype control antibody
- % of maximum IL-21-induced B cell proliferation at 0.1 nM inhibitor (SDEV 5.34) (human IL-21 (human) [1]): 96%
- % of maximum IL-21-induced B cell proliferation at 0.21 nM inhibitor (SDEV 10.3) (human IL-21 (human) [1]): 115%
- % of maximum IL-21-induced B cell proliferation at 0.42 nM inhibitor (SDEV 17.1) (human IL-21 (human) [1]): 107%
- % of maximum IL-21-induced B cell proliferation at 0.83 nM inhibitor (SDEV 15.3) (human IL-21 (human) [1]): 114%
- % of maximum IL-21-induced B cell proliferation at 1.67 nM inhibitor (SDEV 4.78) (human IL-21 (human) [1]): 108%
- % of maximum IL-21-induced B cell proliferation at 3.33 nM inhibitor (SDEV 18.7) (human IL-21 (human) [1]): 119%
- % of maximum IL-21-induced B cell proliferation at 6.67 nM inhibitor (SDEV 17.9) (human IL-21 (human) [1]): 103%
- % of maximum IL-21-induced B cell proliferation at 13.3 nM inhibitor (SDEV 6.21) (human IL-21 (human) [1]): 101%
- % of maximum IL-21-induced B cell proliferation at 26.7 nM inhibitor (SDEV 11.2) (human IL-21 (human) [1]): 96%
- fold increase of plasma cells (CD38 high, IgD low), donor 1, 26.7 nM antibody (IL-21 without antibody: 176) (human IL-21 (human) [1]): 174 fold
- fold increase of plasma cells (CD38 high, IgD low), donor 2, 26.7 nM antibody (IL-21 without antibody: 114) (human IL-21 (human) [1]): 108 fold
- fold increase of plasma cells (CD38 high, IgD low), donor 3, 26.7 nM antibody (IL-21 without antibody: 47) (human IL-21 (human) [1]): 47 fold
- fold increase of plasma cells (CD38 high, IgD low), donor 4, 26.7 nM antibody (IL-21 without antibody: 68) (human IL-21 (human) [1]): 66 fold
- fold increase of plasma cells (CD38 high, IgD low), donor 5, 26.7 nM antibody (IL-21 without antibody: 22) (human IL-21 (human) [1]): 23 fold
- OD at 560 nm (human IL-21 (human) [2]): 0.06 OD
- OD at 560 nm (human IL-21 (human) [3]): 0.06 OD
- OD at 560 nm (human IL-21 (human) [4]): 0.06 OD
- OD at 560 nm (human IL-21 (human) [5]): 0.06 OD
- OD at 560 nm (human IL-21 (human) [6]): 0.06 OD
- OD at 560 nm (human IL-21 (human) [7]): 0.06 OD
- OD at 560 nm (human IL-21 (human) [8]): 0.06 OD

Substance: human IL-21R:Fc chimera (R&D Systems, cat #991-R2) (from UniProt Q9HBE5 20-232) (Fc fusion)
- IC50, IM9 pan-STAT-luciferase reporter assay, IL-21 at 66.67 pM [9]: 3920 pM
- % of maximum IL-21-induced B cell proliferation at 0.1 nM inhibitor (SDEV 15.8) (human IL-21 (human) [1]): 83%
- % of maximum IL-21-induced B cell proliferation at 0.21 nM inhibitor (SDEV 10.8) (human IL-21 (human) [1]): 99%
- % of maximum IL-21-induced B cell proliferation at 0.42 nM inhibitor (SDEV 6.43) (human IL-21 (human) [1]): 87%
- % of maximum IL-21-induced B cell proliferation at 0.83 nM inhibitor (SDEV 6.33) (human IL-21 (human) [1]): 109%
- % of maximum IL-21-induced B cell proliferation at 1.67 nM inhibitor (SDEV 12.6) (human IL-21 (human) [1]): 90%
- % of maximum IL-21-induced B cell proliferation at 3.33 nM inhibitor (SDEV 13.7) (human IL-21 (human) [1]): 103%
- % of maximum IL-21-induced B cell proliferation at 13.3 nM inhibitor (SDEV 13.8) (human IL-21 (human) [1]): 77%
- % of maximum IL-21-induced B cell proliferation at 53.3 nM inhibitor (SDEV 6.2) (human IL-21 (human) [1]): 83%
- IC50, IM9 pan-STAT-luciferase reporter assay, IL-21 at 66.67 pM (human IL-21 (human) [1]): 271 pM
- IC50, IM9 pan-STAT-luciferase reporter assay, IL-21 at 66.67 pM (mouse IL-21 (mouse)): 3530 pM
- IC50, IM9 pan-STAT-luciferase reporter assay, IL-21 at 66.67 pM (rabbit IL-21 (rabbit)): 321 pM
